Test results taken from patent US20240409650A1 (ARMAGEN, published 2024).

Key:
[1] = target: T1, HIR extracellular domain (ECD) (human, UniProt P06213 28-956, limits assumed); test: ELISA on plated HIR ECD; ED50 normalised with a MW of 375 kDa
T1 construct: extracellular domain; also called HIR ECD; IR ECD

[2] = target: T1, HIR extracellular domain (ECD); test: ELISA, HIR ECD plated on Nunc-Maxisorb wells, biotinylated goat anti-human IgG detection; ED50 by inspection
[3] = target: T1, HIR extracellular domain (ECD); test: ELISA on plated HIR ECD; ED50 normalised with a MW of 150 kDa
[4] = target: T1, HIR extracellular domain (ECD); test: ELISA on HIR ECD; ED50 normalised with a MW of 150 kDa
[5] = target: T1, HIR extracellular domain (ECD); test: ELISA on lectin affinity purified HIR ECD; printed as ED50, non-linear regression
[6] = target: T1, HIR extracellular domain (ECD); test: ELISA on HIR ECD; ED50 normalised with a MW of 350 kDa
[7] = target: T1, HIR extracellular domain (ECD); test: ELISA on HIR ECD (FIG. 17); the same 166 ng/mL ED50 normalised with a MW of 375 kDa

| Binder | EC50 [1] [nM] | EC50 [2] [µg/mL] | EC50 [3] [nM] | EC50 [4] [nM] | EC50 [5] [µg/mL] | EC50 [6] [nM] | EC50 [7] [nM] |
| --- | --- | --- | --- | --- | --- | --- | --- |
| HIRMAb-L-NAGLU fusion protein (23 amino acid L linker) (antibody, human IgG1, human IgG3, kappa, COS-derived (transient expression), purified on protein A. Hetero-tetramer; also called HIR Ab-L-NAGLU fusion protein; IgG-L-NAGLU) heavy: not shown light: DIQMTQSPSSLSASLGERVSLTCRASQDIGGNLYWLQQGPDGTIKRLIYATSSLDSGVPKRFSGSRSGSDYSLTISSLESEDFVDYYCLQYSSSPWTFGGGTKLEIKRTVAAPSVFIFPPSDEQLKSGTASVVCLLNNFYPREAKVQWKVDNALQSGNSQESVTEQDSKDSTYSLSSTLTLSKADYEKHKVYACEVTHQGLSSPVTKSFNRGEC | 0.93 | 0.35 | – | – | – | – | – |
| chimeric HIRMAb (chimeric monoclonal antibody against the human insulin receptor) (antibody, human IgG1, kappa, also called HIR Ab; HIRMAb alone) heavy: not shown light: DIQMTQSPSSLSASLGERVSLTCRASQDIGGNLYWLQQGPDGTIKRLIYATSSLDSGVPKRFSGSRSGSDYSLTISSLESEDFVDYYCLQYSSSPWTFGGGTKLEIKRTVAAPSVFIFPPSDEQLKSGTASVVCLLNNFYPREAKVQWKVDNALQSGNSQESVTEQDSKDSTYSLSSTLTLSKADYEKHKVYACEVTHQGLSSPVTKSFNRGEC | – | 0.065 | 0.43 | 0.29 | 0.043 | – | – |
| HIRMAb-LL-NAGLU fusion protein (31 amino acid LL linker) (antibody, human IgG1, human IgG3, kappa, also called HIR Ab HC-LL-NAGLU; printed in places as HIRMAb-NAGLU or HIR Ab-NAGLU fusion protein) heavy: not shown light: DIQMTQSPSSLSASLGERVSLTCRASQDIGGNLYWLQQGPDGTIKRLIYATSSLDSGVPKRFSGSRSGSDYSLTISSLESEDFVDYYCLQYSSSPWTFGGGTKLEIKRTVAAPSVFIFPPSDEQLKSGTASVVCLLNNFYPREAKVQWKVDNALQSGNSQESVTEQDSKDSTYSLSSTLTLSKADYEKHKVYACEVTHQGLSSPVTKSFNRGEC | – | – | – | – | 0.166 | 0.47 | 0.44 |
